This passage reports Km results from patent publication EP0251446B1, “Non-human Carbonyl hydrolase mutants, DNA sequences and vectors encoding same and hosts transformed with said vectors” (GENENCOR INTERNATIONAL, INC., priority 1986, dated 1988).

By Km is commonly meant the concentration of substrate that gives half-maximal velocity.

Common to all, as to assay type: biochemical, B. amyloliquefaciens
Substrate in series [1]: CSCC[C@H](NC(=O)[C@@H]1CCCN1C(=O)[C@H](C)NC(=O)[C@H](C)NC(=O)CCC(=O)O)C(=O)Nc1ccc([N+](=O)[O-])cc1
Nature of the series: Kinetics of p-nitroanilide substrate hydrolysis, D166. As to conditions: other: Table XIV, 156 Glu / 166 Asp; value in parentheses; synthetic substrate with label as P-1 amino acid. The source says:
(§1) Wild-type subtilisin was purified from B. subtilis culture supernatants expressing the B. amyloliquefaciens subtilisin gene (Wells, J.A., et al. (1983) Nucleic Acids Res. 11, 7911-7925) as previously described (Estell, D.A., et al. (1985) J. Biol. Chem. 260, 6518-6521). Details of the synthesis of tetrapeptide substrates having the form succinyl-L-AlaL-AlaL-ProL-[X]-p-nitroanilide (where X is the P1 amino acid) are described by DelMar, E.G., et al. (1979) Anal. Biochem. 99, 316-320. Kinetic parameters, Km(M) and kcat-(s-^1) were measured using a modified progress curve analysis (Estell, D.A., et al. (1985) J. Biol. Chem. 260, 6518-6521). Briefly, plots of rate versus product concentration were fit to the differential form of the rate equation using a non-linear regression algorithm. Errors in kcat and Km for all values reported are less than five percent. The various substrates in Table VIII are ranged in order of decreasing hydrophobicity. Nozaki, Y. (1971), J. Biol. Chem. 246, 2211-2217; Tanford C. (1978) Science 200, 1012).
(§2) The construction of subtilisin mutants containing the substitution of the ionic amino acids Asp, Asn, Gln, Lys and Ang are disclosed in EPO Publication No. 0130756. The present example describes the construction of the mutant subtilisin containing Glu at position 166 (E166) and presents substrate specificity data on these mutants. Further data on position 166 and 156 single and double mutants is presented infra.
(§3) Each of these mutants was analyzed with the tetrapeptide substrates, succinyl-L-AlaL-AlaProL-X-p-nitroanilide, where X was Phe, Ala and Glu.

Substrate in series [2]: C[C@H](NC(=O)CCC(=O)O)C(=O)N[C@@H](C)C(=O)N1CCC[C@H]1C(=O)N[C@@H](CCCCN)C(=O)Nc1ccc([N+](=O)[O-])cc1
The description is as above. Conditions: other: Table XIV, 156 Glu / 166 Asp; value in parentheses; synthetic substrate with label as P-1 amino acid.
Text: as §1, §2, §3

Substrate in series [3]: C[C@H](NC(=O)CCC(=O)O)C(=O)N[C@@H](C)C(=O)N1CCC[C@H]1C(=O)N[C@@H](CCC(N)=O)C(=O)Nc1ccc([N+](=O)[O-])cc1
The series is described as above. Conditions: other: Table XIV, 156 Glu / 166 Asp; value in parentheses; synthetic substrate with label as P-1 amino acid.
Text: as §1, §2, §3

Substrate in series [4]: CSCC[C@H](NC(=O)[C@@H]1CCCN1C(=O)[C@H](C)NC(=O)[C@H](C)NC(=O)CCC(=O)O)C(=O)Nc1ccc([N+](=O)[O-])cc1
Nature of the series: Kinetics of p-nitroanilide substrate hydrolysis, Q166. Conditions: other: Table XIV, 156 Glu / 166 Gln; value in parentheses; synthetic substrate with label as P-1 amino acid.
Text: as §1, §2, §3

Substrate in series [5]: C[C@H](NC(=O)CCC(=O)O)C(=O)N[C@@H](C)C(=O)N1CCC[C@H]1C(=O)N[C@@H](CCC(=O)O)C(=O)Nc1ccc([N+](=O)[O-])cc1
The series is described as above. Conditions: other: Table XIV, 156 Glu / 166 Gln; value in parentheses; synthetic substrate with label as P-1 amino acid.
Text: as §1, §2, §3

Substrate in series [6]: C[C@H](NC(=O)CCC(=O)O)C(=O)N[C@@H](C)C(=O)N1CCC[C@H]1C(=O)N[C@@H](CCCCN)C(=O)Nc1ccc([N+](=O)[O-])cc1
The description is as above. Conditions: other: Table XIV, 156 Glu / 166 Gln; value in parentheses; synthetic substrate with label as P-1 amino acid.
Text: as §1, §2, §3

Substrate in series [7]: C[C@H](NC(=O)CCC(=O)O)C(=O)N[C@@H](C)C(=O)N1CCC[C@H]1C(=O)N[C@@H](CCC(N)=O)C(=O)Nc1ccc([N+](=O)[O-])cc1
Described as above. Conditions: other: Table XIV, 156 Glu / 166 Gln; value in parentheses; synthetic substrate with label as P-1 amino acid.
Text: as §1, §2, §3

Substrate in series [8]: CSCC[C@H](NC(=O)[C@@H]1CCCN1C(=O)[C@H](C)NC(=O)[C@H](C)NC(=O)CCC(=O)O)C(=O)Nc1ccc([N+](=O)[O-])cc1
As to the kind of experiment: Kinetics of p-nitroanilide substrate hydrolysis, N166. Conditions: other: Table XIV, 156 Glu / 166 Asn; value in parentheses; synthetic substrate with label as P-1 amino acid.
Text: as §1, §2, §3

Substrate in series [9]: C[C@H](NC(=O)CCC(=O)O)C(=O)N[C@@H](C)C(=O)N1CCC[C@H]1C(=O)N[C@@H](CCC(=O)O)C(=O)Nc1ccc([N+](=O)[O-])cc1
Described as above. As to conditions: other: Table XIV, 156 Glu / 166 Asn; value in parentheses; synthetic substrate with label as P-1 amino acid.
Text: as §1, §2, §3

Substrate in series [10]: C[C@H](NC(=O)CCC(=O)O)C(=O)N[C@@H](C)C(=O)N1CCC[C@H]1C(=O)N[C@@H](CCCCN)C(=O)Nc1ccc([N+](=O)[O-])cc1
The series is described as above. Conditions: other: Table XIV, 156 Glu / 166 Asn; value in parentheses; synthetic substrate with label as P-1 amino acid.
Text: as §1, §2, §3

Substrate in series [11]: C[C@H](NC(=O)CCC(=O)O)C(=O)N[C@@H](C)C(=O)N1CCC[C@H]1C(=O)N[C@@H](CCC(N)=O)C(=O)Nc1ccc([N+](=O)[O-])cc1
The series is described as above. As to conditions: other: Table XIV, 156 Glu / 166 Asn; value in parentheses; synthetic substrate with label as P-1 amino acid.
Text: as §1, §2, §3

Substrate in series [12]: CSCC[C@H](NC(=O)[C@@H]1CCCN1C(=O)[C@H](C)NC(=O)[C@H](C)NC(=O)CCC(=O)O)C(=O)Nc1ccc([N+](=O)[O-])cc1
Nature of the series: Kinetics of p-nitroanilide substrate hydrolysis, E166. As to conditions: other: Table XIV, 156 Glu / 166 Glu; value in parentheses; synthetic substrate with label as P-1 amino acid.
Text: as §1, §2
(§4) pΔ166, described in Example 3, was digested with Sacl and Xmal. The double strand DNA cassette (underlined and overlined) of line 4 in Figure 13 contained the triplet GAA for the codon 166 to encode the replacement of Glu for Gly166. This mutant plasmid designated […] was propagated in BG2036 as described. This mutant subtilisin, together with the other mutants containing ionic substituent amino acids at residue 166, were isolated as described and further analyzed for variations in substrate specificity.
as §3

Substrate in series [13]: C[C@H](NC(=O)CCC(=O)O)C(=O)N[C@@H](C)C(=O)N1CCC[C@H]1C(=O)N[C@@H](CCCCN)C(=O)Nc1ccc([N+](=O)[O-])cc1
The description is as above. As to conditions: other: Table XIV, 156 Glu / 166 Glu; value in parentheses; synthetic substrate with label as P-1 amino acid.
Text: as §1, §2, §4, §3

Substrate in series [14]: C[C@H](NC(=O)CCC(=O)O)C(=O)N[C@@H](C)C(=O)N1CCC[C@H]1C(=O)N[C@@H](CCC(N)=O)C(=O)Nc1ccc([N+](=O)[O-])cc1
The description is as above. As to conditions: other: Table XIV, 156 Glu / 166 Glu; value in parentheses; synthetic substrate with label as P-1 amino acid.
Text: as §1, §2, §4, §3

B1: B. amyloliquefaciens subtilisin variant D166 (Gly166 to Asp) (Bacillus amyloliquefaciens; G273D) (protein)
chain: AQSVPYGVSQIKAPALHSQGYTGSNVKVAVIDSGIDSSHPDLKVAGGASMVPSETNPFQDNNSHGTHVAGTVAALNNSIGVLGVAPSASLYAVKVLGADGSGQYSWIINGIEWAIANNMDVINMSLGGPSGSAALKAAVDKAVASGVVVVAAAGNEGTSGSSSTVDYPGKYPSVIAVGAVDSSNQRASFSSVGPELDVMAPGVSIQSTLPGNKYGAYNGTSMASPHVAGAAALILSKHPNWTNTQVRSSLENTTTKLGDSFYYGKGLINVQAAAQ
notes: at various amino acid residues within the mature form of the subtilisin molecule; made in house; host or cells: Bacillus subtilis BG2036
With B1, the Michaelis constant (Km) in [1] was 1820 µM; in series [2] it was 1000 µM; in series [3], 2750 µM.

B2: B. amyloliquefaciens subtilisin variant Q166 (Gly166 to Gln) (Bacillus amyloliquefaciens; G273Q) (protein)
chain: AQSVPYGVSQIKAPALHSQGYTGSNVKVAVIDSGIDSSHPDLKVAGGASMVPSETNPFQDNNSHGTHVAGTVAALNNSIGVLGVAPSASLYAVKVLGADGSGQYSWIINGIEWAIANNMDVINMSLGGPSGSAALKAAVDKAVASGVVVVAAAGNEGTSGSSSTVQYPGKYPSVIAVGAVDSSNQRASFSSVGPELDVMAPGVSIQSTLPGNKYGAYNGTSMASPHVAGAAALILSKHPNWTNTQVRSSLENTTTKLGDSFYYGKGLINVQAAAQ
notes: as for B1
As to B2, the Km was 43.7 µM in [4], 7590 µM in series [5], 708 µM in [6] and 229 µM in series [7].

B3: B. amyloliquefaciens subtilisin variant N166 (Gly166 to Asn) (Bacillus amyloliquefaciens; G273N) (protein)
chain: AQSVPYGVSQIKAPALHSQGYTGSNVKVAVIDSGIDSSHPDLKVAGGASMVPSETNPFQDNNSHGTHVAGTVAALNNSIGVLGVAPSASLYAVKVLGADGSGQYSWIINGIEWAIANNMDVINMSLGGPSGSAALKAAVDKAVASGVVVVAAAGNEGTSGSSSTVNYPGKYPSVIAVGAVDSSNQRASFSSVGPELDVMAPGVSIQSTLPGNKYGAYNGTSMASPHVAGAAALILSKHPNWTNTQVRSSLENTTTKLGDSFYYGKGLINVQAAAQ
notes: as for B1
With B3, the Km was determined as 141 µM in [8], 6030 µM in [9], 1320 µM in [10] and 724 µM in [11].

B4: B. amyloliquefaciens subtilisin variant E166 (Gly166 to Glu) (Bacillus amyloliquefaciens; G273E) (protein)
chain: AQSVPYGVSQIKAPALHSQGYTGSNVKVAVIDSGIDSSHPDLKVAGGASMVPSETNPFQDNNSHGTHVAGTVAALNNSIGVLGVAPSASLYAVKVLGADGSGQYSWIINGIEWAIANNMDVINMSLGGPSGSAALKAAVDKAVASGVVVVAAAGNEGTSGSSSTVEYPGKYPSVIAVGAVDSSNQRASFSSVGPELDVMAPGVSIQSTLPGNKYGAYNGTSMASPHVAGAAALILSKHPNWTNTQVRSSLENTTTKLGDSFYYGKGLINVQAAAQ
notes: as for B1
Consider B4, for which the Km in series [12] worked out at 525 µM; in series [13] it was 204 µM; in series [14], 1230 µM.
